Source: publication PMC9565799 (2022)

B1: TcpB (minor pilin, N-terminally truncated, first 28 residues excluded) (natural protein)
chain: GGELMIKSSNAFDVIELSSQIQRYASLSKINNRTNPILKDNKAKEFKDADLKWLKLENCPTAGDVPTTGNNNDLQDQFIACDADYRKGDLSYFGSQFEFSTYVHPSNPEIQRQIKQVVSYFQYRGMERAFIGDAAGYVISEAKKKGFSAQDYRIVLIEPDRVGYFESNAISYEEFIENPSARENFLLKATKDRTLALAVSLAQTGEIAMQRDGSVAFLEDSELCWDTAAGSAKSCLSVRYDTVGNKTELDLKQIDVVSAKGLSFESDGKTKTPVVSTYETFQDGGRAKTINAIECPTGLNNRFAAVVSSFSTAGQNANFSSESAKDSQGTTQKDGSKGPHALLSGISLNWTLTNKVWDVTASIGIESGILPTSGIDSGSLLRNPKSLSFIAFQWCEN

Tests used:
Assay in all cases: ITC
[1] = target: B1
TcpF (1–10) peptide = TcpF (1–10) peptide (Vibrio cholerae, UniProt P0C6Q5 21-30)
TcpF (1–20) peptide = TcpF (1–20) peptide (Vibrio cholerae, UniProt P0C6Q5 21-40)

| Binder | Kd [1] [nM] | Kd (TcpF (1–10) peptide) [µM] | Kd (TcpF (1–20) peptide) [nM] |
| --- | --- | --- | --- |
| FNDNYSSTSTVYATS [TcpF (1–15) peptide] | 3000 |  |  |
| B1 |  | 506 | 1700 |
